Measurements as given in the nanobody polyreactivity screen of Harvey et al. (2022).

Assay: yeast display, Sf9 membrane polyspecificity reagent, FACS + sequencing; frameworks hold sequencing errors
Outline: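 A nanobody's polyreactivity label depends on the gate it was sorted from. Yeast display cells were stained with 10% biotinylated, detergent-solubilized Sf9 membrane reagent for 1 hour at 4 °C, enriched on streptavidin microbeads and sorted by FACS. The low and high (top ~1%) gates were set on anti-HA fluorescence for expression and streptavidin fluorescence for reagent binding.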

Sequence	polyreactivity (PSR sort gate)
QVQLVESGGGLVQAGGSLRLSCAASGFTFDFYAMGWYRQAPGKERELVASIRWSGGSTYYADSVKGRFTISRDNAKNTVYLQMNSLKPEDTAVYYCAKSIASAAYDSWGQGTQVTVSS	low polyreactivity
QVHLVESGGGLVQAGGSLRLSSAASGFICYQYAMGWYRQAPGKERELVAAISRRGGGTYYADSVKGRFTISRDNAKNTVYLEMNRLKPEDTAVYYCNTDRLGRITFGGYDYWGQGTQVTVSS	high polyreactivity
QVQLVESGGGLVQAGGSLRLSCDASGSTFGWYAMGWYRQAPGKERELVAAISKNGGRTYYADSVKGRFTISRDNAKNTVYLQMNSLKPVDTAVYYCNKVSKTVRDFDYWGQGTQVTVSS	high polyreactivity
QVQLVESGGGLVQAGGSLRLSCAASGSIFTYYVMGWYRQAPGKERELVAAITRSGGRTYYADSVKGRFTISRDNAKNTVYLQMNSLKPEDTAVYYCAARKYTGSGSRYYYWGQGTQVTVSS	high polyreactivity
QVQLVESGGGLVQAGGSLRLSSAASGRIFYRNAMGWYRQAPGKEREMVAAIRGSGGRTYYADSVKGRFTISRDNAKYTVYLQMISLKPEDTAVYYCAAYGYYVEHPRGLSGPYDDDYWGQGTQVTVSS	low polyreactivity
QVQLVESGGGLVQAGGSLRLSCDASGSILGTYALGWSRQAPGKERELVAAISSSGRTSYADSVKGRFTISRDNAKNTVYLQMNSLKPEDTAVYYCIASNYIVLINDPDAAPWLYDYWGQGTQVTVSS	low polyreactivity
QVQLVESGGGLVQAGGSLRLSCAASGSTFQSYAMGWYRQAPGKERELVAAISFSGGSTYYADSVKGRFTNSRDNSKNTVYLQMNSLIPEDTAVYYCAKRGWVYFHGYDYWGQGTQVTVSS	low polyreactivity
QVQLVESGGGLVQAGGSLRLSGAASGRIFYYNTMGWYRQAPGKEWEVVAAISSTAYTTYADSVKGRFTISRDNAKNTVYLQMYSLKPEDTAVYYCAAYRYSRYRQRYNYWGQGTQVTVSS	high polyreactivity
QVQLVESGGGLVQAGGSLRLSCAASGRIFSIYAMGWYRQAPGKERELVAAISSRGGSTYYADSVKGRFTISRDNAKNTVYLQMNSLKPEDTAVYYCNAVSWEGYDFDYWGQGTQVTVSS	high polyreactivity
QVQLVESGGGLVQAGGSLRLSCAASGSTFSIYAMGWYRKAPGKERELVAAISTDGGSTNYADSVKGRFTISRDNAKNTVYLQMNILKPEDTAVYYCAADTYWYLSPYDYWGQGTQVTVSS	low polyreactivity
QVQLVESGGGLVQAGGSLRLSCAASGSIFRIYAMGWYRQATGKETELVAAITWSGGSTYYADSVKGRFTISRDNAKNSVYLQMNSLKPEDTAVYYCAAVVIYWYQRVGYRSDYWGQGTQVTVSS	high polyreactivity
QVQLVESGGGLVQAGGSLRLSCAASGRIFWINAMGWYRQAPGKERELVAAISWRGDSTYYADSVKGRFTISRDNAKNTVYLQMNSLKPEDTAVYYCAAETRYLYDYWGQGSQVTVSS	high polyreactivity
QVQLVESGGGLVQAGGSLRLSCAASGIIFHKYAMGWYRQAPGKERELVAVITWRGGSTYYADSVKGRFTISRDHAKNTVYLQMNSLKPEDTAVYYCAARSQYRDRTGQYGYWGQGTQVTVSS	high polyreactivity
QVQLVESGGGLGQAGGSLRLSCAASGRTVYYNGMGWYRPAPGKEREVVAAITSGGTTSYADSVKGRFTISRDNAKNTVYLQMISLKPEETAVYYSNADYWAVNYDYWGQGTQVTVSS	low polyreactivity
QVQLVESGGGLVHAGGSLRLSCAASGSTFGFYARGWYRQAPGKERELVAAITTGGSTNYADSVKGRFTISRVNAKNTVYLQMYSLKPEDSAVYYCHADVYWNPYYDYDYWGQGTLVTVSS	high polyreactivity
QVQLVESGGGLVQAGGSLRLICAASGLIFGRYDMGWYRQAPGKERELVAAISGGTTNYADSVKGRFTISRDNAKNTVYLEMNSLKPEDTAVYYCNAGPSQPGGIFYEYDYWGQGTQVTVSS	low polyreactivity
QDQLVESGVGLVQAGGSHRLSCAASGSIFGWYARGWYRQAPGKERELGATITTGGSTNYADSVKGRFTISRDNAKNTVYLQMNSLKPEDTAVYYCAAGYNTWYGQYGYWGQGTQVTVSS	low polyreactivity
QVQLVESGGGLVQAGGSLRLSCAASGSIFYAYVMGWYRQAPGKERELVAAISSRGGSTHYADSVKGRFTISRDNAKNTVYLQMNSLKPEDTAVYYCAAARGKDGYWGQGTQVTVSS	high polyreactivity
QVQLVESGGGLVQAGGSLRLSCAASGSTFRLYAMGWYRQAPGKERELVAVISRSGGRTYADSVKGRFTISRDNAKNTVYLQMNSLKPEDTAVYYCAKARHKSPTYTHDSWGQGTQVTVSS	high polyreactivity
QVQLVESGGGLVQAGGSLRLSCAASGNAMGWYRQAPGKERELVAAITRRGGSTYYADSVKGRFTISRDNAKNTVYLQMNSLKPEDTAVYYCAAENPSYNLCYGYWGQGTQVTVSS	low polyreactivity
QVQLLESGGGLVQAGGSLRLTCMASGSILGDRMSWYRQARGKEHELVATIYDGGITYYADSMKGRFTISRDNAKNTVYLQLNSLRPEDTAVYYCGASFEGYRYHVYCGQGTQVTVSS	low polyreactivity
QVQLVESGGGLVQAGGSLRLSCAASGRIWVYYTMGWYRQAPGKERELVAAITGSGGSTYYADSVTGRFTISRDNATNTVYLQMNSLKPEDTAVYYCAVYDSYRKFKYWGQGTQVTVSS	high polyreactivity

Sequence	polyreactivity (PSR sort gate)
QVQLVESGGGLVQAGRSLRLSCAASGLIFPWNAMGWYRQAPGKQRELVAAINGRDGSTYYADSVKGRFTISRDNAKNTVYLQMNSLKPEDTAVYYCAKGPSGVRSYREYDSWGQGTQVTVSS	low polyreactivity
QVQLVESGGGLVQAGGRLRLSCAASGFIFVRNAMGWYRQAPGKERELVAAISRGGGRTYYADSVKGRFTISRDNAKNTVYLQINRLKPEDTAVYYCNTQSVGVQFVKDNYWGQGTQVTVSS	high polyreactivity
QVQLVESGGGLVQAGGSLRLSCAASGSMFKNNAMGWYRQAPGKARELVAAISRSGGSTYYADSVKGRFTISRDNAKNTVYLPMNSLKPEDTAVYYCARDVDTHYPYAYDYWGQGTQVTVSS	high polyreactivity
QDQLVESRGGLVQAGGSLRLSCAASGIIFGYYAMGWYRQAPGKERELVAAISRRGGSTYYADSVKGRFTISRDNAKNTVYLQMNSLKPEDTAVYYCAAVELRLSTPDMESWGQGTQVTVSS	high polyreactivity
QVQLVESGGGLVQAGGSLRLSWAASGSIFSIYAMGWYRQAPGKERDLVASITRSSGRTYYAYSVKGRFTISRDNAKNNVYLQMNSLKPEDTAVYYCAKDYIPLALDADDYCGQGTQVTVSS	low polyreactivity
QVQLVESRGGLVQAGGSLRLSCAASGRIYNYYEMGWYRQAHGKESELVAAITWRGGTTYYADSVKGRFTISRDNAKNTVYLQMNSLKPEDTAVYYCATTPRSYRFPPPVGYGYWGQGTQVTVSS	high polyreactivity
QVQLVESGGGLVQAGGSLRLSCAASGFIFGYYAMGWYRQAPGKERELVAAITTSAASTYYADSVKGRFTISRDNAKNTVYLQMNSLKPEDTAVYYCNAVLYKVSISEYDYWGQGTQVTVSS	high polyreactivity
QVQLVESGGGLVQAGGSLRLSCAASGRTFYPNAMGWSRQAPGKERELVAAINSGGSTYYADSVKGRFTISRDNAKNTVYLQMNSLKPEDTAVYYCNAERRIAYEYWGQGTQVTVSS	low polyreactivity
QVQLVESGRRLVQAGGSLRLTCAASGRTFVTNAMGWYRQAPGKERELVAAISSKGGSTYYADSVKGRFTISRDNAKNTVYLQMNSLKPEDTAVYDCNAEGQPLYVSWHDHRYIYGFDYWGQGTQVTVSS	low polyreactivity
QVQLVESGGGLVQAGGSLRLSCAASGNHLRSLSLGWNRQAPGKQRELVAAITSSGASTYYADSVKGRFTNSRDNAKNSVYLQMNSLKPEDSAVYYCAAYLFRRYDYWGQGTQVSVSS	low polyreactivity
QVQLVESGGGLVQAGGSLRLSCAASGSTFEYNAMGWYRQAPGKESELVASSTNYADSVKGRFTISRDNAKNTVYFQMNSLKPEDTAVYYCSREQGVNRNHDYWGQGTQVTVSS	low polyreactivity
QVQLVESAGGLVQAGRSLRLSCAASGYTFAKYTKGWYREATGKERELVAAISRGGSTTYADSVKGRFTISRDNAKNTVYLQMHSLKPEDTAVYYCAADVHRVVLEYDYWGQGTQVTVSS	low polyreactivity
QVQLVESGGGLVQAGGSLRLSCAASGSIFGSYTMGWYRQAPGKERELVAAITTSGSSTYYADSVKGRFTISRDNAKNTVYLQMNSLKPEDTAVYYCSAEYYVTYPPYGWYDYWGHGTQVTVSS	high polyreactivity
QVQLVESGGGLVQSGGSLRLSCAASGSTLIGNAMGWYRQAPGKERELVAAISSGGRTYYADSVKGRFTISRDNAKNTVYLQMNSLKPEDTAVYYCAADTVGTNVVSPELDYWGQGTQVTVSS	low polyreactivity
QVQLVESGGGLVQAGGSLRLSCAASGRTSVGYVMGWYRQAPGKERELVASITSGGSTYYADSVKGRFTISRDNAKNTVYLQMNSLKPEDTAVYYCAAQLKSHRTYGHDYWGQGTQVTVSS	low polyreactivity
QVQLVESGGGLVQAGGSLRLSCAASGSTFIGYTMGWYRQAPGKERELVAAIRYSSGRTYYADSVKGRFTISRDNAKNTVYLQMNSLKPEDTAVYYCAAANPRDHRGANDYWGQGTQVTVSS	high polyreactivity
QVQLVESGGGLVQAGGSLRLSCAASGSIFYFYAMRWYRQAPGKERELVAAITDGGASTRYADSVKGRFTISRDYAKNTVYLHMNSLKPEDTAVYYCNARKYWKYGSYQYYWGQGTQVTVSW	high polyreactivity
QVQLVESGGGLVQAGGSLRLSCAASGSIFSTYTMGWYRQAPGTERELVAAITRSGGSTYNADSVKGRFTISRDNAKNTVYLQMNSLKPEDTAVYYCAARWKFPSSFYYWGQGTQVTVSS	high polyreactivity
QVQLVESGGGLVQAGGSLRLSCAASGFTFVNYAMGWYRQAPGKERELVAAISFRSARTYYADSVKGRFTISRDNAKNNVYLQMNSLKPEDTAVYYCAARVSRRFDYWGQGTQVTVSS	high polyreactivity
QVQLVESGGGLVQAGGSLRLSCAASGRTFVYYAMGWYRQAPGKERELVAAIRRDTRTYYADSVKGRFTISRDNAKNTVYLQMNSQTPEDTAVYYCAADDPWHYDFDYWGQGTQVTVSS	low polyreactivity
QVQLHESGGGLVQAGGSLRLSCAASGTISVTYNMGWYRQAPGKEREFVAGNSTGATTNYADSVKGRFTISRDNAKNTVYLQMNSLKPEDTAVYYCAAHIYRQDHFYYWGQGTQVTVSS	low polyreactivity
